According to article PMC6910923, “Novel halo- and thermo-tolerant Cohnella sp. A01 L-glutaminase: heterologous expression and biochemical characterization” (Scientific Reports, 2019):

System: NC(=O)CC[C@H](N)C(=O)O
Assay: purified protein
Details: MgCl2 present, 0-25 mM substrate, standard assay pH 8 phosphate, 50 °C

rSAM (L-glutaminase) (Cohnella sp.) gave a Km of 1800 µM.
